Laboratory results published in patent publication US20070128623A1.

Molecular target: GST-tagged PLD1-PX
Assay: AFM force measurement; GST-Munc-18-1 on dendron-modified tip, GST-PLD1-PX on dendron-modified Si wafer

## GST-tagged Munc-18-1
  binding force: 50 pN
